Source: patent US20240409619A1 (WISTAR INSTITUTE OF ANATOMY AND BIOLOGY, published 2024)

Target: SARS-COV-2 spike protein, isolate USA-WA1/2020, on pseudotyped virus (SARS-COV-2, UniProt P0DTC2 14-1273)
Experiment: cell-based or functional assay

B1: DMAb 2381_FcWT (antibody, V domains shown)
VH: QMQLVQSGPEVKKPGTSVKVSCKASGFTFTSSAVQWVRQARGQRLEWIGWIAVGSGNTNYAQKFQERVSITRDMSTSTAYMELSSLRSEDTAVYYCAAPYCSRTSCHDAFDIWGQGTKVTVSS
VL: EVVLTQSPGTLSLSPGERATLSCRASQSVSSSYLAWYQQKPGQAPRLLIYGASSRATGIPDRFSGSGSGTDFTLTISRLEPEDFAVYHCQHFGSSSQWTFGQGTKVEIKR
neutralization potency (IC50) of serum against pseudotyped virus: < 5 ng/mL
